Assay results taken from patent publication US20100196267A1.

Experiments:
[1] = target: antigen on dog lymphoma cells recognised by L243 and hL243 (dog); assay: flow cytometry on dog lymphoma aspirate, murine MAbs (none 3.37); control antibody
[2] = target: antigen on dog lymphoma cells recognised by L243 and hL243 (dog); assay: flow cytometry on dog lymphoma aspirate, murine MAbs (none 3.85); control antibody
[3] = target: HLA-DR (human); assay: indirect flow cytometry on Namalwa cells, FITC-GAM 2nd Ab (none 2.91); control antibody
[4] = target: CD74 on dog lymphoma cells (dog); assay: flow cytometry on dog lymphoma aspirate, murine MAbs (none 3.37)
[5] = target: CD74 on dog lymphoma cells (dog); assay: flow cytometry on dog lymphoma aspirate, murine MAbs (none 3.85)
[6] = target: CD74 (human) (UniProt P04233); assay: indirect flow cytometry on Namalwa cells, FITC-GAM 2nd Ab (none 2.91)
[7] = target: CD22 on dog lymphoma cells (dog); assay: flow cytometry on dog lymphoma aspirate, murine MAbs (none 3.37)
[8] = target: CD22 on dog lymphoma cells (dog); assay: flow cytometry on dog lymphoma aspirate, murine MAbs (none 3.85)
[9] = target: CD22 (human) (UniProt P20273); assay: indirect flow cytometry on Namalwa cells, FITC-GAM 2nd Ab (none 2.91)
[10] = target: HLA-DR (human); assay: indirect flow cytometry on Namalwa cells, FITC-GAM 2nd Ab (none 2.91); irrelevant antibody
[11] = target: Fcγ receptors on effector cells; assay: cell-based or functional assay
[12] = target: CD74 (human) (UniProt P04233); assay: indirect flow cytometry, FITC-GAH Fc 2nd Ab, RL cells (none 2.4)
[13] = target: CD74 (human) (UniProt P04233); assay: indirect flow cytometry, FITC-GAH Fc 2nd Ab, Raji cells (none 6.9)
[14] = target: CD74 on dog lymphoma cells (dog); assay: flow cytometry on dog lymphoma aspirate, humanized MAbs (none 3.24)
[15] = target: CD74 on dog lymphoma cells (dog); assay: flow cytometry on dog lymphoma aspirate, humanized MAbs (none 4.48)
[16] = target: CD74 (human) (UniProt P04233); assay: indirect flow cytometry, FITC-GAH Fc 2nd Ab, Daudi cells (none 3.2)
[17] = target: CD74 (human) (UniProt P04233); assay: indirect flow cytometry, FITC-GAH Fc 2nd Ab, Ramos cells (none 3.1)
[18] = target: CD74 (human) (UniProt P04233); assay: indirect flow cytometry on Namalwa cells, FITC-GAH 2nd Ab (none 2.52)
[19] = target: CD74 (human) (UniProt P04233); assay: indirect flow cytometry, FITC-GAH Fc 2nd Ab, Namalwa cells (none 2.6)
[20] = target: CD74 (human) (UniProt P04233); assay: indirect flow cytometry, FITC-GAH Fc 2nd Ab, SU-DHL-6 cells (none 4.6)
[21] = target: CD74 (human) (UniProt P04233); assay: indirect flow cytometry, FITC-GAH Fc 2nd Ab, WSU-FSCCL cells (none 2.7)
[22] = target: CD74 (human) (UniProt P04233); assay: indirect FACS, FITC-GAH Fc 2nd Ab, Raji cells (none 6.8); number split over two cells
[23] = target: CD74 (human) (UniProt P04233); assay: indirect FACS, FITC-GAH Fc 2nd Ab, Daudi cells (none 3.1); number split over two cells
[24] = target: CD74 (human) (UniProt P04233); assay: indirect FACS, FITC-GAH Fc 2nd Ab, Ramos cells (none 3.1); number split over two cells
[25] = target: CD74 (human) (UniProt P04233); assay: indirect FACS, FITC-GAH Fc 2nd Ab, Namalwa cells (none 2.5); number split over two cells
[26] = target: CD74 (human) (UniProt P04233); assay: indirect FACS, FITC-GAH Fc 2nd Ab, SU-DHL-6 cells (none 4.6); number split over two cells
[27] = target: CD74 (human) (UniProt P04233); assay: indirect FACS, FITC-GAH Fc 2nd Ab, WSU-FSCCL cells (none 2.6); number split over two cells
[28] = target: CD22 on dog lymphoma cells (dog); assay: flow cytometry on dog lymphoma aspirate, humanized MAbs (none 3.24)
[29] = target: CD22 on dog lymphoma cells (dog); assay: flow cytometry on dog lymphoma aspirate, humanized MAbs (none 4.48)
[30] = target: HLA-DR (human); assay: indirect flow cytometry on Namalwa cells, FITC-GAH 2nd Ab (none 2.52); irrelevant antibody
[31] = target: T1, CD20 on dog lymphoma cells (dog) (UniProt Q3C2E2); assay: flow cytometry on dog lymphoma aspirate, murine MAbs (none 3.37)
T1 sequence (looked up): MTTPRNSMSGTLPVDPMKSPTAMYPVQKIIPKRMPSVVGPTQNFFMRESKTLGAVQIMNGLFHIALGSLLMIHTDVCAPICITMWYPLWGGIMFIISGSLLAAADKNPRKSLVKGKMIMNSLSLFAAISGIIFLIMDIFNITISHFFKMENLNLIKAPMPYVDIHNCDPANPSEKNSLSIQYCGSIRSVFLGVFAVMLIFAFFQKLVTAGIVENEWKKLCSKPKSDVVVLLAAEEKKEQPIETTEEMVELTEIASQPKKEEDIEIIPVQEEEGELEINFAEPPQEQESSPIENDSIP

[32] = target: T1, CD20 on dog lymphoma cells (dog); assay: flow cytometry on dog lymphoma aspirate, murine MAbs (none 3.85)
[33] = target: T2, CD20 (human) (UniProt P11836); assay: indirect flow cytometry on Namalwa cells, FITC-GAM 2nd Ab (none 2.91)
T2 sequence (looked up): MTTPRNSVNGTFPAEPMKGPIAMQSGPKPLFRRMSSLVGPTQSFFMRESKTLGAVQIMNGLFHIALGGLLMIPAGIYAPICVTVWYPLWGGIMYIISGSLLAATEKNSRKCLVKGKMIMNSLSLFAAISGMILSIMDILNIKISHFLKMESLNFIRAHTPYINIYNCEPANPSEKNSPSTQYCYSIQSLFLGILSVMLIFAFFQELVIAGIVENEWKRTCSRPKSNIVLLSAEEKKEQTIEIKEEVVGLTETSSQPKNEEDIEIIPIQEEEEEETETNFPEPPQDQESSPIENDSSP

CD74 (human), sequence (P04233 whole entry): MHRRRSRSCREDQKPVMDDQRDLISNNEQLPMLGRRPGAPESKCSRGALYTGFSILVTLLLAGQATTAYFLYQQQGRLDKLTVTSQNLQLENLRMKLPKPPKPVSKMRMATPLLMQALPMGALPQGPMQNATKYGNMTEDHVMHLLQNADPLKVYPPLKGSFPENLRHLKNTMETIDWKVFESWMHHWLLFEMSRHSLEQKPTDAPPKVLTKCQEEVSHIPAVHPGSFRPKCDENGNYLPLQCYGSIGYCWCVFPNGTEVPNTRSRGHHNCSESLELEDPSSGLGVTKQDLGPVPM

In the case of Ag8 (antibody), the Mean FL [1] is reported as 3.04, the % [2] is reported as 2.81% and the GEO MEAN Fluorescence [3] is reported as 3.64.

With LL1 (murine) (antibody) the Mean FL [4] was 4.01, the % [5] was 6.69% and the GEO MEAN Fluorescence [6] was 17.3.

In the case of LL2 (murine) (antibody), the Mean FL [7] is reported as 3.73, the % [8] is reported as 5.05% and the GEO MEAN Fluorescence [9] is reported as 10.5.

Work on RS7 (murine) (antibody) yielded a GEO MEAN Fluorescence [10] of 3.39.

For hL243γ1 (antibody), the ADCC on Daudi cells, specific lysis corrected for the effect on effector cells (5 µg/ml, effector:target 50:1, 4 h) [11] was 48%.

hL243γ4P (antibody) gave an ADCC on Daudi cells, specific lysis corrected for the effect on effector cells (5 µg/ml, effector:target 50:1, 4 h) [11] of 12%.

hLL1 (antibody) showed a Geometric Mean Fluorescence [12] of 7.9, a Geometric Mean Fluorescence [13] of 95.1 and a Mean FL [14] of 3.33. The % [15] was 4.71%, the Geometric Mean Fluorescence [16] was 48.8 and the Geometric Mean Fluorescence [17] was 23.3. The GEO MEAN Fluorescence [18] was 10.1, the Geometric Mean Fluorescence [19] was 7.8 and the Geometric Mean Fluorescence [20] was 17.3. It also gave a Geometric Mean Fluorescence [21] of 8.7, a Geometric Mean Fluorescence [22] of 95.1 and a Geometric Mean Fluorescence [23] of 48.8. For the same substance, the Geometric Mean Fluorescence [24] was 23.2, the Geometric Mean Fluorescence [25] was 7.81 and the Geometric Mean Fluorescence [26] was 17.3. It also gave a Geometric Mean Fluorescence [27] of 8.66.

Work on hLL2 (antibody) yielded a Mean FL [28] of 3.37 and a % [29] of 4.85%.

hRS7 (antibody) gave a GEO MEAN Fluorescence [30] of 2.47.

m2B8 (antibody) gave a Mean FL [31] of 3.11, a % [32] of 2.61% and a GEO MEAN Fluorescence [33] of 6.16.
